Read-outs that look alike come from different tables or passages of the source.
Columns and labels:
Experiment in all cases: cryo-EM structure
[1] = molecular target: Human Slo1 (hSlo1), BK channel α subunit, residues 1-1056 (human)
[2] = molecular target: Human Slo1 (hSlo1), BK channel α subunit, residues 1-1056 (human); remark: listed apart in the source
[3] = molecular target: Human Slo1 (hSlo1), BK channel α subunit, residues 1-1056 (human); remark: listed apart in the source
[4] = molecular target: Human Slo1 (hSlo1), BK channel α subunit, residues 1-1056 (human); remark: listed apart in the source

stoichiometry N [1]: 4
stoichiometry N [2]: 4
stoichiometry N [3]: 4
stoichiometry N [4]: 4
Substance: Human Slo1 (hSlo1), BK channel α subunit, residues 1-1056 (natural protein)

From article PMC11840039
